Residue numbers refer to the chain shown, from its start. Names and notes keep the numbering of the source.
Legend:
[1] = target: T1, rHuman IGF-1 sR, CF (R&D Systems Cat#391-GR) (human, UniProt P08069 31-932); experiment: ECL Multispot (MSD) assay; antigen spotted on plate, Fab in solution;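 further: fab bound 1 h at 20 °C, detected by TAG-labelled antibody electrochemiluminescence, signal relative to each well's blank, ratio of 4 or more marks a hit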
T1 construct: Bought soluble receptor; the column head 'IGF-1' means IGF-1 sR; also called insulin-like growth factor-1 soluble receptor

[2] = target: T2, Recombinant Human DLL4 (R&D Systems Cat#1506-D4/CF) (human, UniProt Q9NR61 27-524); experiment: as above
T2 construct: Bought recombinant protein; also called delta-like protein 4; rHuman DLL4

[3] = target: T3, rHuman Erythropoietin R/Fc Chimera, CF (R&D Systems Cat#963-ER) (human, UniProt P19235 25-250); experiment: as above
T3 construct: Bought reagent; also called EPO R; Epo R/Fc
T3 sequence (looked up): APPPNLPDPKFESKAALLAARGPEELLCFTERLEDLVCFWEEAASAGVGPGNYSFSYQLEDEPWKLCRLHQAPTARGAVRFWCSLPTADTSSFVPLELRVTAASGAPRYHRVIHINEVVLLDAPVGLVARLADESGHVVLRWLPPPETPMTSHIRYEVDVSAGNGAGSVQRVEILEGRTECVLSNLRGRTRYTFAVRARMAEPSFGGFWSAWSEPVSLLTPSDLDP

[4] = target: T4, rHuman CD44/Fc Chimera, CF (R&D Systems Cat#3660-CD) (human, UniProt P16070 21-220); experiment: as above
T4 construct: Bought reagent

[5] = target: T5, rHuman EGF R/Fc Chimera, CF (R&D Systems Cat#344-ER) (human, UniProt P00533 25-645); experiment: as above
T5 construct: Bought reagent; also called epidermal growth factor receptor

[6] = target: T6, rHuman Notch-1/Fc Chimera, CF (R&D Systems Cat#3647-TK) (human, UniProt P46531 19-526); experiment: as above
T6 construct: Bought reagent

[7] = target: T7, rHuman P-Cadherin/Fc Chimera, CF (R&D Systems Cat#861-PC) (human, UniProt P22223 108-654); experiment: as above
T7 construct: Bought reagent

[8] = target: T8, rHuman HGF R/c-MET/Fc Chimera, CF (R&D Systems Cat#358-MT/CF) (human, UniProt P08581 25-932); experiment: as above
T8 construct: Bought reagent; also called HGF R/Fc; hepatocyte growth factor receptor

[9] = target: T9, rHuman ErbB2/Fc Chimera, CF (R&D Systems Cat#1129-ER) (human, UniProt P04626 23-652); experiment: as above
T9 construct: Bought reagent; also called human epidermal growth factor 2 receptor

[10] = target: T10, rHuman EGF R/Fc Chimera, CF (R&D Systems Cat#344-ER) (human, UniProt P00533 25-645); experiment: ECL multispot (MSD), antigen spotted, Fab in solution; blank spot 407
T10 construct: Bought reagent

[11] = target: T11, rHuman ErbB2/Fc Chimera, CF (R&D Systems Cat#1129-ER) (human, UniProt P04626 23-652); experiment: as above
T11 construct: Bought reagent

[12] = target: T12, rHuman P-Cadherin/Fc Chimera, CF (R&D Systems Cat#861-PC) (human, UniProt P22223 108-654); experiment: as above
T12 construct: Bought reagent

[13] = target: T13, rHuman Erythropoietin R/Fc Chimera, CF (R&D Systems Cat#963-ER) (human, UniProt P19235 25-250); experiment: as above
T13 construct: Bought reagent; also called EPO R; Epo R/Fc
T13 sequence (looked up): T3 sequence (looked up)

[14] = target: T14, rHuman IGF-1 sR (insulin-like growth factor-1 soluble receptor), CF (R&D Systems Cat#391-GR) (human, UniProt P08069 31-932); experiment: as above
T14 construct: Bought soluble receptor

[15] = target: T15, rHuman Notch-1/Fc Chimera, CF (R&D Systems Cat#3647-TK) (human, UniProt P46531 19-526); experiment: as above
T15 construct: Bought reagent

[16] = target: T16, rHuman HGF R/c-MET/Fc Chimera, CF (R&D Systems Cat#358-MT/CF) (human, UniProt P08581 25-932); experiment: as above
T16 construct: Bought reagent; also called HGF R/Fc

[17] = target: T17, rHuman CD44/Fc Chimera, CF (R&D Systems Cat#3660-CD) (human, UniProt P16070 21-220); experiment: as above
T17 construct: Bought reagent

[18] = target: T18, Recombinant Human DLL4 (R&D Systems Cat#1506-D4/CF) (human, UniProt Q9NR61 27-524); experiment: as above
T18 construct: Bought recombinant protein; also called delta-like protein 4; rHuman DLL4

[19] = target: T10, rHuman EGF R/Fc Chimera, CF (R&D …); experiment: ECL multispot (MSD), antigen spotted, Fab in solution; blank spot 262
[20] = target: T11, rHuman ErbB2/Fc Chimera, CF (R&D …); experiment: as above
[21] = target: T12, rHuman P-Cadherin/Fc Chimera, CF (R&D …); experiment: as above
[22] = target: T13, rHuman Erythropoietin R/Fc Chimera, CF …; experiment: as above
[23] = target: T14, rHuman IGF-1 sR (insulin-like growth …); experiment: as above
[24] = target: T15, rHuman Notch-1/Fc Chimera, CF (R&D …); experiment: as above
[25] = target: T16, rHuman HGF R/c-MET/Fc Chimera, CF (R&D …); experiment: as above
[26] = target: T17, rHuman CD44/Fc Chimera, CF (R&D Systems …); experiment: as above
[27] = target: T18, Recombinant Human DLL4 (R&D Systems …); experiment: as above
[28] = target: T10, rHuman EGF R/Fc Chimera, CF (R&D …); experiment: ECL multispot (MSD), antigen spotted, Fab in solution; blank spot 416
[29] = target: T11, rHuman ErbB2/Fc Chimera, CF (R&D …); experiment: as above
[30] = target: T12, rHuman P-Cadherin/Fc Chimera, CF (R&D …); experiment: as above
[31] = target: T13, rHuman Erythropoietin R/Fc Chimera, CF …; experiment: as above
[32] = target: T14, rHuman IGF-1 sR (insulin-like growth …); experiment: as above
[33] = target: T15, rHuman Notch-1/Fc Chimera, CF (R&D …); experiment: as above
[34] = target: T16, rHuman HGF R/c-MET/Fc Chimera, CF (R&D …); experiment: as above
[35] = target: T17, rHuman CD44/Fc Chimera, CF (R&D Systems …); experiment: as above
[36] = target: T18, Recombinant Human DLL4 (R&D Systems …); experiment: as above

B1: Fab VH1-46_IGHD6-6*01_IGHJ1*01 S102A/S103P/S104F (APF) & L6_IGKJ1*01 Y32S (Fab, V domains shown)
VH: QVQLVQSGAEVKKPGASVKVSCKASGYTFTSYYMHWVRQAPGQGLEWMGIINPSGGSTSYAQKFQGRVTMTRDTSTSTVYMELSSLRSEDTAVYYCAREEYAPFSAEYFQHWGQGTLVTVSS
VL: EIVLTQSPATLSLSPGERATLSCRASQSVSSSLAWYQQKPGQAPRLLIYDASNRATGIPARFSGSGSGTDFTLTISSLEPEDFAVYYCQQRSNWPPWTFGQGTKVEIKR
notes: Fab format as for the parent (CH1 with His6/Flag tags, kappa CL); also called APF / Y32S
[1]
  ECL signal: 175
[2]
  ECL signal: 1030
[3]
  ECL signal: 230
[4]
  ECL signal: 162
[5]
  ECL signal: 208
[6]
  ECL signal: 137
[7]
  ECL signal: 51
[8]
  ECL signal: 222
[9]
  ECL signal: 154

B2: Fab VH1-46_IGHD6-6*01_IGHJ1*01 S102A/S103P/S104F/H111F (APFF) & L6_IGKJ1*01 S30T (Fab, V domains shown)
VH: B1 VH with H111F
VL: B1 VL with S30T, S32Y
notes: Tested as Fab made in E. coli: VH joined to CH1 from Plasmid A (His6 and Flag tags), VL joined to kappa CL from Plasmid C; also called APFF / S30T
[10]
  ECL signal: 360
[11]
  ECL signal: 332
[12]
  ECL signal: 370
[13]
  ECL signal: 497
[14]
  ECL signal: 410
[15]
  ECL signal: 413
[16]
  ECL signal: 375
[17]
  ECL signal: 423
[18]
  ECL signal: 122000

B3: Fab VH1-46_IGHD6-6*01_IGHJ1*01 S102A/S103P/S104F/H111F (APFF) & L6_IGKJ1*01 S30P (Fab, V domains shown)
VH: B1 VH with H111F
VL: B1 VL with S30P, S32Y
notes: Tested as Fab made in E. coli: VH joined to CH1 from Plasmid A (His6 and Flag tags), VL joined to kappa CL from Plasmid C; also called APFF / S30P
[19]
  ECL signal: 394
[20]
  ECL signal: 391
[21]
  ECL signal: 348
[22]
  ECL signal: 520
[23]
  ECL signal: 356
[24]
  ECL signal: 544
[25]
  ECL signal: 328
[26]
  ECL signal: 334
[27]
  ECL signal: 1140

B4: Fab VH1-46_IGHD6-6*01_IGHJ1*01 S102A/S103P/S104F/H111F (APFF) & L6_IGKJ1*01 S30R (Fab, V domains shown)
VH: B1 VH with H111F
VL: B1 VL with S30R, S32Y
notes: Tested as Fab made in E. coli: VH joined to CH1 from Plasmid A (His6 and Flag tags), VL joined to kappa CL from Plasmid C; also called APFF / S30R
[28]
  ECL signal: 456
[29]
  ECL signal: 434
[30]
  ECL signal: 465
[31]
  ECL signal: 571
[32]
  ECL signal: 404
[33]
  ECL signal: 576
[34]
  ECL signal: 458
[35]
  ECL signal: 455
[36]
  ECL signal: 146000

— US20120316071A1 (published 2012)
